Common to all, as to details: both partners purified
The target in assay [1] is Recombinant full-length HA of A/California/04/09 (H1-CA09) (influenza A virus A/California/04/09, UniProt C3W5S1). Nature of the assay: BLI. (Biolayer interferometry detects binding as a change in optical thickness at a sensor tip.)
Assay [2] concerns the target T1, Recombinant full-length HA of A/Vietnam/1203/04 (H5-VN04) (Influenza A virus A/Vietnam/1203/2004 …, UniProt Q5EP31). Nature of the assay: BLI.
In assay [3] the target is T1, Recombinant full-length HA of …. Nature of the assay: ELISA. Background: In an ELISA, binding on a coated surface is turned into a signal by an enzyme label.

One may read the Kd as the equilibrium constant for the complex coming apart. For orientation: koff means the rate constant with which the complex falls apart. In general, kon refers to a measure of how fast the partners come together.

B1: 3I14-gHmL IgG1 (germline heavy chain, mature light chain) (antibody, V domains shown)
VH: QVQLVESGGGVVQPGRSLRLSCAASGFTFSSYGMHWVRQAPGKGLEWVAVISYDGSNKYYADSVKGRFTISRDNSKNTLYLQMNSLRAEDTAVYYCAKLPSPYYYDSRFVWVAASYFDYWGQGTLVTVSS
VL: NFMLTQPPSASGTPGQRVTISCSGSSSNIGGNTVHWFQQLPGTAPKLLIYTNSLRPSGVPDRFSGSKSGTSASLAISGLQSEDEADYYCAAWDDSLNGQVFGGGTKLTVL
As for B1, in assay [1], the Kd is below 1 pM, the koff is below 1e-07 s⁻¹ and the association rate constant (kon) amounted to 155000 M⁻¹ s⁻¹. In assay [2], the Kd was determined as 1950 pM, the koff stood at 0.000844 s⁻¹ and the on-rate (kon) is 434000 M⁻¹ s⁻¹.

B2: F10 scFvFc (scFv, V domains shown)
VH: QVQLVQSGAEVKKPGSSVKVSCTSSEVTFSSFAISWVRQAPGQGLEWLGGISPMFGTPNYAQKFQGRVTITADQSTRTAYMDLRSLRSEDTAVYYCARSPSYICSGGTCVFDHWGQGTLVTVSS
VL: QPGLTQPPSVSKGLRQTATLTCTGNSNNVGNQGAAWLQQHQGHPPKLLSYRNNDRPSGISERFSASRSGNTASLTITGLQPEDEADYYCSTWDSSLSAVVFGGGTKLTVL
As to B2, the binding result in assay [3] is recorded as “binds”.

B3: 39.29 scFvFc (scFv, V domains shown)
VH: VQLVESGGGVVQPGKSPRLSCAASGPTFSSYAVHWVRQAPGKGLEWVTLISYDGANQYYADSVKGRFTISRDNSKNTVYLQMNSLRPEDTAVYYCAVPGPVFGIFPPWSYFDNWGQGILVTVSS
VL: IVLTQSPATLSVSPGERATLSCRASQVISHNLAWYQQKPGQAPRLLIYGASTRASGIPARFSGSGSGTDYTLTITSLQPEDFAVYYCQHYSNWPPRLTFGGGTKVEIK
Regarding B3, the binding result in assay [3] is reported as “binds”.

B4: 3I14-mHgL IgG1 (mature heavy chain, germline light chain) (antibody, V domains shown)
VH: QVQLLESGGGVVQPGRSLRLSCAASGFTFSNYGMHWVRQAPGKGLEWVAIISFDGSKKYYANSVKGRSTISRDNSKNTLSLQMNSLGPEDTALYYCAKLPSPYYFDSRFVWVAASAFHFWGQGILVTVSS
VL: not shown
With B4, in assay [1], the dissociation constant (Kd) is below 1 pM, the koff was below 1e-07 s⁻¹ and the kon was determined as 138000 M⁻¹ s⁻¹.

The values above are taken from publication PMC5027281 (Nature Communications, 2016).
